Target: T1, EsCas13d, nuclease-dead (Eubacterium siraeum, UniProt B0MS50, R295A;H300A;R849A;H854A)
T1 sequence: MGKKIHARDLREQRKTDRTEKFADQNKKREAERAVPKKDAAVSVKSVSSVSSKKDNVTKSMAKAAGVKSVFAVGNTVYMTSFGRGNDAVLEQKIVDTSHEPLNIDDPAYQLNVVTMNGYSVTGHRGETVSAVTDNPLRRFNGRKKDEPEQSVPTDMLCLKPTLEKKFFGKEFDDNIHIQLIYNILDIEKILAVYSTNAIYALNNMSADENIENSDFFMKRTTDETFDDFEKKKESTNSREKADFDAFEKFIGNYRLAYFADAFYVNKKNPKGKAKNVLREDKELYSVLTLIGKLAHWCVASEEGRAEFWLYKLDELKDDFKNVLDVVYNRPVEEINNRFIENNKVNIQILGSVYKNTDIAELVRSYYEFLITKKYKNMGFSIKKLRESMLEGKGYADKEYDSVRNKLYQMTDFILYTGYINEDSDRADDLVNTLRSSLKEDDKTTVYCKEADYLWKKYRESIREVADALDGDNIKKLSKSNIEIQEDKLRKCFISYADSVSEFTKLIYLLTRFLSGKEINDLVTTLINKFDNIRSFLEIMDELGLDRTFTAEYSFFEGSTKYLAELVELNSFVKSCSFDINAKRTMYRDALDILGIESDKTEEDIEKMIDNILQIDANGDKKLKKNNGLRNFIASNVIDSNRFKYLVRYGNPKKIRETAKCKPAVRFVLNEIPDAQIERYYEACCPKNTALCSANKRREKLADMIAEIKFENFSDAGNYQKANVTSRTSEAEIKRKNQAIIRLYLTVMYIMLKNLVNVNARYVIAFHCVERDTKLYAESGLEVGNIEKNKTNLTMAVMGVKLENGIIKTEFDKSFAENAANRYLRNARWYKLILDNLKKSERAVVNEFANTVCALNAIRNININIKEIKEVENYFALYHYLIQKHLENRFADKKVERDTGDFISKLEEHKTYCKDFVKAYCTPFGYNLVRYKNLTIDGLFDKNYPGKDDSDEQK
Assay: crRNA (strand 1, pre-loaded); Mg2+; 40 mM Tris-HCl pH 7.5, 150 mM NaCl, 6 mM MgCl2, 1 mM DTT, 0.1% Tween-20, 0.2 mg/ml BSA; 25 C; 10 min per concentration, then washed
Details: tags: His6-TwinStrep-SUMO cleaved; N-terminal SNAP kept (SNAP-Surface 488); label: 3' end held by stalled T7 RNA polymerase

B1: target 2 MT 5'PFS GUA 3'PFS ACU (mixed)
RNA 1: CACCCGUGCAAAAUUGCAGGGGUCUAAAACCUUCUCCAAAUUGUUUCAUCCU
RNA 2: GGGAAUGGAUCCACAUCUACGAAUUCGUAAGGAUGAAACAAUUUGGAGAAGACUAGAUCGGAAGAGCACACGU
  Kd: 15.9 ± 2.7 nM

B2: target 2 MT 5'PFS GUA 3'PFS ACC (mixed)
RNA 1: CACCCGUGCAAAAUUGCAGGGGUCUAAAACCUUCUCCAAAUUGUUUCAUCCU
RNA 2: GGGAAUGGAUCCACAUCUACGAAUUCGUAAGGAUGAAACAAUUUGGAGAAGACCAGAUCGGAAGAGCACACGU
  Kd: 22 ± 4 nM

B3: target 2 MT 5'PFS GGG 3'PFS AUU (mixed)
RNA 1: CACCCGUGCAAAAUUGCAGGGGUCUAAAACCUUCUCCAAAUUGUUUCAUCCU
RNA 2: GGGAAUGGAUCCACAUCUACGAAUUCGGGAGGAUGAAACAAUUUGGAGAAGAUUAGAUCGGAAGAGCACACGU
  Kd: 9 ± 0.8 nM

B4: target 2 MT 5'PFS UUG 3'PFS UAC (mixed)
RNA 1: CACCCGUGCAAAAUUGCAGGGGUCUAAAACCUUCUCCAAAUUGUUUCAUCCU
RNA 2: GGGAAUGGAUCCACAUCUACGAAUUCUUGAGGAUGAAACAAUUUGGAGAAGUACAGAUCGGAAGAGCACACGU
  Kd: 14.3 ± 1.2 nM

B5: target 2 MT 5'PFS CAC 3'PFS CAC (mixed)
RNA 1: CACCCGUGCAAAAUUGCAGGGGUCUAAAACCUUCUCCAAAUUGUUUCAUCCU
RNA 2: GGGAAUGGAUCCACAUCUACGAAUUCCACAGGAUGAAACAAUUUGGAGAAGCACAGAUCGGAAGAGCACACGU
  Kd: 2.9 ± 0.4 nM

B6: target 2 MT 5'PFS GAA 3'PFS UAC (mixed)
RNA 1: CACCCGUGCAAAAUUGCAGGGGUCUAAAACCUUCUCCAAAUUGUUUCAUCCU
RNA 2: GGGAAUGGAUCCACAUCUACGAAUUCGAAAGGAUGAAACAAUUUGGAGAAGUACAGAUCGGAAGAGCACACGU
  Kd: 12 ± 4 nM

B7: target 2 MT 5'PFS GGC 3'PFS UAA (mixed)
RNA 1: CACCCGUGCAAAAUUGCAGGGGUCUAAAACCUUCUCCAAAUUGUUUCAUCCU
RNA 2: GGGAAUGGAUCCACAUCUACGAAUUCGGCAGGAUGAAACAAUUUGGAGAAGUAAAGAUCGGAAGAGCACACGU
  Kd: 9.4 ± 1.2 nM

B8: target 2 MT 5'PFS CAC 3'PFS CAU (mixed)
RNA 1: CACCCGUGCAAAAUUGCAGGGGUCUAAAACCUUCUCCAAAUUGUUUCAUCCU
RNA 2: GGGAAUGGAUCCACAUCUACGAAUUCCACAGGAUGAAACAAUUUGGAGAAGCAUAGAUCGGAAGAGCACACGU
  Kd: 3.5 ± 0.4 nM

B9: target 2 MT 5'PFS GUA 3'PFS ACG (mixed)
RNA 1: CACCCGUGCAAAAUUGCAGGGGUCUAAAACCUUCUCCAAAUUGUUUCAUCCU
RNA 2: GGGAAUGGAUCCACAUCUACGAAUUCGUAAGGAUGAAACAAUUUGGAGAAGACGAGAUCGGAAGAGCACACGU
  Kd: 10.6 ± 0.9 nM

B10: target 2 MT 5'PFS GAA 3'PFS UAU (mixed)
RNA 1: CACCCGUGCAAAAUUGCAGGGGUCUAAAACCUUCUCCAAAUUGUUUCAUCCU
RNA 2: GGGAAUGGAUCCACAUCUACGAAUUCGAAAGGAUGAAACAAUUUGGAGAAGUAUAGAUCGGAAGAGCACACGU
  Kd: 7.8 ± 1 nM

B11: target 2 MT 5'PFS CUG 3'PFS CAA (mixed)
RNA 1: CACCCGUGCAAAAUUGCAGGGGUCUAAAACCUUCUCCAAAUUGUUUCAUCCU
RNA 2: GGGAAUGGAUCCACAUCUACGAAUUCCUGAGGAUGAAACAAUUUGGAGAAGCAAAGAUCGGAAGAGCACACGU
  Kd: 2.4 ± 0.4 nM

B12: target 2 MT 5'PFS GAA 3'PFS UAA (mixed)
RNA 1: CACCCGUGCAAAAUUGCAGGGGUCUAAAACCUUCUCCAAAUUGUUUCAUCCU
RNA 2: GGGAAUGGAUCCACAUCUACGAAUUCGAAAGGAUGAAACAAUUUGGAGAAGUAAAGAUCGGAAGAGCACACGU
  Kd: 7.3 ± 1.5 nM

B13: target 2 MT 5'PFS UGU 3'PFS UAC (mixed)
RNA 1: CACCCGUGCAAAAUUGCAGGGGUCUAAAACCUUCUCCAAAUUGUUUCAUCCU
RNA 2: GGGAAUGGAUCCACAUCUACGAAUUCUGUAGGAUGAAACAAUUUGGAGAAGUACAGAUCGGAAGAGCACACGU
  Kd: 25 ± 4 nM

B14: target 2 MT 5'PFS GUA 3'PFS ACA (mixed)
RNA 1: CACCCGUGCAAAAUUGCAGGGGUCUAAAACCUUCUCCAAAUUGUUUCAUCCU
RNA 2: GGGAAUGGAUCCACAUCUACGAAUUCGUAAGGAUGAAACAAUUUGGAGAAGACAAGAUCGGAAGAGCACACGU
  Kd: 10.7 ± 1.6 nM

B15: target 2 MT 5'PFS UUG 3'PFS UAA (mixed)
RNA 1: CACCCGUGCAAAAUUGCAGGGGUCUAAAACCUUCUCCAAAUUGUUUCAUCCU
RNA 2: GGGAAUGGAUCCACAUCUACGAAUUCUUGAGGAUGAAACAAUUUGGAGAAGUAAAGAUCGGAAGAGCACACGU
  Kd: 12.8 ± 2 nM

B16: target 2 MT 5'PFS AAA 3'PFS AUC (mixed)
RNA 1: CACCCGUGCAAAAUUGCAGGGGUCUAAAACCUUCUCCAAAUUGUUUCAUCCU
RNA 2: GGGAAUGGAUCCACAUCUACGAAUUCAAAAGGAUGAAACAAUUUGGAGAAGAUCAGAUCGGAAGAGCACACGU
  Kd: 3.6 ± 0.7 nM

B17: target 2 MT 5'PFS CAU 3'PFS AGG (mixed)
RNA 1: CACCCGUGCAAAAUUGCAGGGGUCUAAAACCUUCUCCAAAUUGUUUCAUCCU
RNA 2: GGGAAUGGAUCCACAUCUACGAAUUCCAUAGGAUGAAACAAUUUGGAGAAGAGGAGAUCGGAAGAGCACACGU
  Kd: 2.8 ± 0.4 nM

B18: target 2 MT 5'PFS UUG 3'PFS UAG (mixed)
RNA 1: CACCCGUGCAAAAUUGCAGGGGUCUAAAACCUUCUCCAAAUUGUUUCAUCCU
RNA 2: GGGAAUGGAUCCACAUCUACGAAUUCUUGAGGAUGAAACAAUUUGGAGAAGUAGAGAUCGGAAGAGCACACGU
  Kd: 10.9 ± 1.2 nM

B19: target 2 MT 5'PFS UUG 3'PFS UAU (mixed)
RNA 1: CACCCGUGCAAAAUUGCAGGGGUCUAAAACCUUCUCCAAAUUGUUUCAUCCU
RNA 2: GGGAAUGGAUCCACAUCUACGAAUUCUUGAGGAUGAAACAAUUUGGAGAAGUAUAGAUCGGAAGAGCACACGU
  Kd: 8.6 ± 0.8 nM

B20: target 2 MT 5'PFS AAA 3'PFS AUG (mixed)
RNA 1: CACCCGUGCAAAAUUGCAGGGGUCUAAAACCUUCUCCAAAUUGUUUCAUCCU
RNA 2: GGGAAUGGAUCCACAUCUACGAAUUCAAAAGGAUGAAACAAUUUGGAGAAGAUGAGAUCGGAAGAGCACACGU
  Kd: 4.4 ± 0.8 nM

B21: target 2 MT 5'PFS AAA 3'PFS AUU (mixed)
RNA 1: CACCCGUGCAAAAUUGCAGGGGUCUAAAACCUUCUCCAAAUUGUUUCAUCCU
RNA 2: GGGAAUGGAUCCACAUCUACGAAUUCAAAAGGAUGAAACAAUUUGGAGAAGAUUAGAUCGGAAGAGCACACGU
  Kd: 5.2 ± 1 nM

B22: target 2 MT 5'PFS CAC 3'PFS CAG (mixed)
RNA 1: CACCCGUGCAAAAUUGCAGGGGUCUAAAACCUUCUCCAAAUUGUUUCAUCCU
RNA 2: GGGAAUGGAUCCACAUCUACGAAUUCCACAGGAUGAAACAAUUUGGAGAAGCAGAGAUCGGAAGAGCACACGU
  Kd: 1.3 ± 0.23 nM

B23: target 2 MT 5'PFS ACA 3'PFS CUC (mixed)
RNA 1: CACCCGUGCAAAAUUGCAGGGGUCUAAAACCUUCUCCAAAUUGUUUCAUCCU
RNA 2: GGGAAUGGAUCCACAUCUACGAAUUCACAAGGAUGAAACAAUUUGGAGAAGCUCAGAUCGGAAGAGCACACGU
  Kd: 6.7 ± 1 nM

B24: target 2 MT 5'PFS CAG 3'PFS UCC (mixed)
RNA 1: CACCCGUGCAAAAUUGCAGGGGUCUAAAACCUUCUCCAAAUUGUUUCAUCCU
RNA 2: GGGAAUGGAUCCACAUCUACGAAUUCCAGAGGAUGAAACAAUUUGGAGAAGUCCAGAUCGGAAGAGCACACGU
  Kd: 29 ± 8 nM

B25: target 2 MT 5'PFS UGG 3'PFS CGC (mixed)
RNA 1: CACCCGUGCAAAAUUGCAGGGGUCUAAAACCUUCUCCAAAUUGUUUCAUCCU
RNA 2: GGGAAUGGAUCCACAUCUACGAAUUCUGGAGGAUGAAACAAUUUGGAGAAGCGCAGAUCGGAAGAGCACACGU
  Kd: 5.8 ± 0.4 nM

B26: target 1 insU 3' of 4,insA 3' of 3 (mixed)
RNA 1: CACCCGUGCAAAAAUGCAGGGGUCUAAAACUGAGCGGAUAACCUCUCUAUGG
RNA 2: GGGAAUGGAUCCACAUCUACGAAUUCGUACCAUAGAGAGGUUAUCCGCUUACACCGAGAUCGGAAGAGCACACGU
  Kd: 8 ± 0.3 nM

B27: target 1 C7A,A18C (mixed)
RNA 1: CACCCGUGCAAAAAUGCAGGGGUCUAAAACUGAGCGGAUAACCUCUCUAUGG
RNA 2: GGGAAUGGAUCCACAUCUACGAAUUCGUACCAUCGAGAGGUUAUACGCUCACCGAGAUCGGAAGAGCACACGU
  Kd: 70 ± 6 nM

B28: target 1 A1G,A9C (mixed)
RNA 1: CACCCGUGCAAAAAUGCAGGGGUCUAAAACUGAGCGGAUAACCUCUCUAUGG
RNA 2: GGGAAUGGAUCCACAUCUACGAAUUCGUACCAUAGAGAGGUUCUCCGCUCGCCGAGAUCGGAAGAGCACACGU
  Kd: 13.7 ± 2.3 nM

Source: paper PMC10786891, “Massively parallel profiling of RNA-targeting CRISPR-Cas13d”
